Among the targets are NOS1, P29475; PICK1, Q9NRD5; TJP1_2, Q07157; MAGI2_5, Q86UL8; MAST1, Q9Y2H9; HTRA1, Q92743; IL16_3, Q14005; PTPN3, P26045; DLG2_2, Q15700; DLG1_2, Q12959; DLG2_3, Q15700.
Common to all, as to experiment: holdup assay
Holding throughout (parameters): key: below the threshold = too weak to quantify, mostly under pKd 3.1 to 4
Common to all, as to details: plain residues with an end cap or a label only (N-terminal biotin on a linker: ado-ado)

A further experiment addresses T1, DFNB31_2, Q9P202.
T1 sequence (Q9P202 274-371, limits assumed, looked up): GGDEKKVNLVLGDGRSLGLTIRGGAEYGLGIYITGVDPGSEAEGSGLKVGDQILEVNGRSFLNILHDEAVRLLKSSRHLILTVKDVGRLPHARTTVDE

The target in the next experiment is T2, MPDZ_10, O75970.
T2 sequence (O75970 1624-1722, limits assumed, looked up): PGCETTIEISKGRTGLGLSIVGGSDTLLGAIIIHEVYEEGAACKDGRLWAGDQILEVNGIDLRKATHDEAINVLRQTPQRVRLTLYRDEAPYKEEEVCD

The target in a further experiment is T3, NHERF3_4, Q5T2W1.
T3 sequence (Q5T2W1 373-468, limits assumed, looked up): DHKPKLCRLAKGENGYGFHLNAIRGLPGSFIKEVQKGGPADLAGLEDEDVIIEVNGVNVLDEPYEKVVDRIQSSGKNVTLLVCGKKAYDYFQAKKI

The next experiment has as its target T4, TX1BP3, O14907.
T4 sequence (O14907 10-122, limits assumed, looked up): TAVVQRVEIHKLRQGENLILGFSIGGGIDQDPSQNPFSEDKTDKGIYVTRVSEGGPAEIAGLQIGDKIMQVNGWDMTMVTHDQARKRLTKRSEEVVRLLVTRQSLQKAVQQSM

Another experiment deals with T5, NHERF3_1, Q5T2W1.
T5 sequence (Q5T2W1 4-100, limits assumed, looked up): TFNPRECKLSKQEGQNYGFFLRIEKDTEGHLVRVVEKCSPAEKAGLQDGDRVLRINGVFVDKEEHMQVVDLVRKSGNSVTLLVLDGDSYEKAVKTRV

Another experiment deals with T6, APBA2_2, Q99767.
T6 sequence (Q99767 654-744, limits assumed, looked up): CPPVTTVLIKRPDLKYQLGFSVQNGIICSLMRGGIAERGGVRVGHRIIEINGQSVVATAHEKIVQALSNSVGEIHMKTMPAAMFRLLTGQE

For a further experiment, the target named is T7, MPDZ_5, O75970.
T7 sequence (O75970 695-796, limits assumed, looked up): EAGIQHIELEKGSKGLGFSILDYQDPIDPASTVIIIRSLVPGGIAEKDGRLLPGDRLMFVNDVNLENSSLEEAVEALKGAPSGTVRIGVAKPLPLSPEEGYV

Another experiment concerns the target T8, PDZRN3_1, Q9UPQ7.
T8 sequence (Q9UPQ7 244-349, limits assumed, looked up): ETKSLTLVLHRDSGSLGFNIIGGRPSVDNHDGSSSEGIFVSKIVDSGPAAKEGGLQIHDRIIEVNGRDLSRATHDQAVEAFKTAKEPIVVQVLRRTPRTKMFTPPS

For the next experiment, the target named is T9, DLG3_1, Q92796.
T9 sequence (Q92796 125-227, limits assumed, looked up): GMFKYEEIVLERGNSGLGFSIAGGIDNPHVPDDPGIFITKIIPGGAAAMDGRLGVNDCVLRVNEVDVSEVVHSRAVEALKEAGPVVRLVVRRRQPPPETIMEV

In the next experiment the target is T10, LRRC7, Q96NW7.
T10 sequence (Q96NW7 1440-1537, limits assumed, looked up): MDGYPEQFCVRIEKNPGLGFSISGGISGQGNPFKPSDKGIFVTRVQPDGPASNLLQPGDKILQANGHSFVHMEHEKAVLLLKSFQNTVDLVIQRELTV

A further experiment concerns the target T11, LIN7A, O14910.
T11 sequence (O14910 103-200, limits assumed, looked up): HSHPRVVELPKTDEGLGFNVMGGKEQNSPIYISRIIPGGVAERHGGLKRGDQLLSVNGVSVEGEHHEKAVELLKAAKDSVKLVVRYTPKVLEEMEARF

A further experiment concerns the target T12, MPDZ_12, O75970.
T12 sequence (O75970 1857-1958, limits assumed, looked up): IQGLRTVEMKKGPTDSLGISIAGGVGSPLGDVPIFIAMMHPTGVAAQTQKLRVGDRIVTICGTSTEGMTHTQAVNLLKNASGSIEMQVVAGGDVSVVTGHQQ

The next experiment concerns the target T13, ARHGAP21, Q5T5U3.
T13 sequence (Q5T5U3 45-169, limits assumed, looked up): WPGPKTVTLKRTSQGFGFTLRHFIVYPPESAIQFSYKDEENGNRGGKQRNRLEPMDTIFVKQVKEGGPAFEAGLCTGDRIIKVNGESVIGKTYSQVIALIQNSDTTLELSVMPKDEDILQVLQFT

Among the data in article PMC9482650, “Quantitative fragmentomics allow affinity mapping of interactomes” (Nature Communications, 2022) are pKd values, retold here.

As usually defined, the pKd is −log10 of the Kd, conventionally taken in molar units.

Chain of MAGI2_5, Q86UL8 (Q86UL8 915-1017): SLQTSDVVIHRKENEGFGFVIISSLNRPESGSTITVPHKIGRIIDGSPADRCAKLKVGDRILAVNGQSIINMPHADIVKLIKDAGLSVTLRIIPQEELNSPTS
Chain of PICK1, Q9NRD5 (Q9NRD5 17-115): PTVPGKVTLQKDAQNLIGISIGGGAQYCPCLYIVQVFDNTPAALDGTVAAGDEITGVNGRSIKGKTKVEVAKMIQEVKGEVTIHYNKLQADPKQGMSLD
Chain of TJP1_2, Q07157 (Q07157 181-274): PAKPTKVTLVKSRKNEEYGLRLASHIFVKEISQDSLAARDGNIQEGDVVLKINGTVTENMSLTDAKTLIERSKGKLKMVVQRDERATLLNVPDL
Chain of PTPN3, P26045 (P26045 505-587): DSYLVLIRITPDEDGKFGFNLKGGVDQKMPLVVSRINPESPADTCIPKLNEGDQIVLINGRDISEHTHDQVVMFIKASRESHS
Chain of HTRA1, Q92743 (Q92743 360-477): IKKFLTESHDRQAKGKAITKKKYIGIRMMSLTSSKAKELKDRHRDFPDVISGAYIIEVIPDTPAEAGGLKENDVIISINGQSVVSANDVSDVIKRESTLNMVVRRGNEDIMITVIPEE
Chain of DLG1_2, Q12959 (Q12959 314-412): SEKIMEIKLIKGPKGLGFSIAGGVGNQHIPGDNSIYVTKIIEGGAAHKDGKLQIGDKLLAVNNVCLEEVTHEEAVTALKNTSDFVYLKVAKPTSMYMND
Chain of MAST1, Q9Y2H9 (Q9Y2H9 962-1065): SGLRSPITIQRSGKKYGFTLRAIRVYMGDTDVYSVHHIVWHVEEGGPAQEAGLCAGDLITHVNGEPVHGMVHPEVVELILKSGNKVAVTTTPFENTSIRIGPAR
Chain of IL16_3, Q14005 (Q14005 1107-1207): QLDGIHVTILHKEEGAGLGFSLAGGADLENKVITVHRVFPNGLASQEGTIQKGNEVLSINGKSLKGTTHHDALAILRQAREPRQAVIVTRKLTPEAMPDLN
Chain of NOS1, P29475 (P29475 9-101): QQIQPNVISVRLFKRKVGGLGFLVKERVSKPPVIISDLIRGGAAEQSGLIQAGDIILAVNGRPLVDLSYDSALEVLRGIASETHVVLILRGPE

As to TSSMRGMDAV [RSRC2, Q7L4I2], the pKd result with DFNB31_2, Q9P202 is “below the threshold”; in the experiment with NOS1, P29475, 4.38; with PICK1, Q9NRD5, “below the threshold”; with MPDZ_10, O75970, “below the threshold”; in the experiment with NHERF3_4, Q5T2W1 it was “below the threshold”; with TX1BP3, O14907 it was “below the threshold”. The negative-log Kd (pKd) result with NHERF3_1, Q5T2W1 was “below the threshold”; with TJP1_2, Q07157 it was “below the threshold”; with MAGI2_5, Q86UL8, “below the threshold”; with APBA2_2, Q99767, “below the threshold”; with MPDZ_5, O75970 it was “below the threshold”; in the experiment with MAST1, Q9Y2H9, “below the threshold”. Further, the pKd result in the experiment with HTRA1, Q92743 is on record as “below the threshold”; with IL16_3, Q14005 it was “below the threshold”; with PDZRN3_1, Q9UPQ7, “below the threshold”; with DLG3_1, Q92796, “below the threshold”; with LRRC7, Q96NW7 it was “below the threshold”; with LIN7A, O14910 it was “below the threshold”. The negative-log Kd (pKd) with PTPN3, P26045 is 3.67; in the experiment with DLG2_2, Q15700, “below the threshold”; with MPDZ_12, O75970 it was “below the threshold”; in the experiment with ARHGAP21, Q5T5U3, “below the threshold”; in the experiment with DLG1_2, Q12959, “below the threshold”; with DLG2_3, Q15700 it was “below the threshold”.
For TLPRKRMSSI [GPRC6A, Q5T6X5], the pKd entry with DFNB31_2, Q9P202 is “below the threshold”; with NOS1, P29475, “below the threshold”; with PICK1, Q9NRD5 it was 4.13; in the experiment with MPDZ_10, O75970, “below the threshold”; with NHERF3_4, Q5T2W1, “below the threshold”; in the experiment with TX1BP3, O14907, “below the threshold”. The negative logarithm of the Kd (pKd) result in the experiment with NHERF3_1, Q5T2W1 was “below the threshold”; with TJP1_2, Q07157 it was “below the threshold”; in the experiment with MAGI2_5, Q86UL8 it was “below the threshold”; with APBA2_2, Q99767, “below the threshold”; with MPDZ_5, O75970 it was “below the threshold”; with MAST1, Q9Y2H9 it was 3.6. Moreover, the negative-log Kd (pKd) result with HTRA1, Q92743 is “below the threshold”; with IL16_3, Q14005, “below the threshold”; in the experiment with PDZRN3_1, Q9UPQ7 it was “below the threshold”; with DLG3_1, Q92796 it was “below the threshold”; with LRRC7, Q96NW7, “below the threshold”; with LIN7A, O14910 it was “below the threshold”. Further, the pKd with PTPN3, P26045 was 4.11; in the experiment with DLG2_2, Q15700, “below the threshold”; in the experiment with MPDZ_12, O75970, “below the threshold”; in the experiment with ARHGAP21, Q5T5U3, “below the threshold”; with DLG1_2, Q12959, 3.76; with DLG2_3, Q15700, 3.84.
As for QSPANIYYKV [EFNB1, P52799], the negative logarithm of the Kd (pKd) result with DFNB31_2, Q9P202 was “below the threshold”; with NOS1, P29475, “below the threshold”; with PICK1, Q9NRD5, “below the threshold”; in the experiment with MPDZ_10, O75970, “below the threshold”; with NHERF3_4, Q5T2W1 it was “below the threshold”; with TX1BP3, O14907, “below the threshold”. In addition, the negative logarithm of the Kd (pKd) result with NHERF3_1, Q5T2W1 is “below the threshold”; in the experiment with TJP1_2, Q07157 it was “below the threshold”; with MAGI2_5, Q86UL8 it was “below the threshold”; with APBA2_2, Q99767, “below the threshold”; with MPDZ_5, O75970, “below the threshold”; with MAST1, Q9Y2H9, 3.93. For the same molecule, the negative logarithm of the Kd (pKd) was 4.37 with HTRA1, Q92743; “below the threshold” with IL16_3, Q14005; “below the threshold” with PDZRN3_1, Q9UPQ7; “below the threshold” in the experiment with DLG3_1, Q92796; “below the threshold” in the experiment with LRRC7, Q96NW7; “below the threshold” with LIN7A, O14910. The pKd entry in the experiment with PTPN3, P26045 is “below the threshold”; with DLG2_2, Q15700, “below the threshold”; with MPDZ_12, O75970, “below the threshold”; with ARHGAP21, Q5T5U3, “below the threshold”; in the experiment with DLG1_2, Q12959, “below the threshold”; in the experiment with DLG2_3, Q15700, “below the threshold”.
Consider SAAKVLTSMC [GHRHR, Q02643], for which the negative-log Kd (pKd) result is “below the threshold” with DFNB31_2, Q9P202; “below the threshold” with NOS1, P29475; “below the threshold” with PICK1, Q9NRD5; 3.49 in the experiment with MPDZ_10, O75970; 4 with NHERF3_4, Q5T2W1; 3.54 in the experiment with TX1BP3, O14907. The pKd was 3.94 with NHERF3_1, Q5T2W1; “below the threshold” with TJP1_2, Q07157; 4.36 with MAGI2_5, Q86UL8; “below the threshold” in the experiment with APBA2_2, Q99767; “below the threshold” with MPDZ_5, O75970; “below the threshold” in the experiment with MAST1, Q9Y2H9. In addition, the pKd is 3.55 with HTRA1, Q92743; “below the threshold” with IL16_3, Q14005; “below the threshold” with PDZRN3_1, Q9UPQ7; “below the threshold” in the experiment with DLG3_1, Q92796; “below the threshold” with LRRC7, Q96NW7; “below the threshold” with LIN7A, O14910. For the same molecule, the pKd was 3.71 with PTPN3, P26045; “below the threshold” with DLG2_2, Q15700; “below the threshold” with MPDZ_12, O75970; “below the threshold” with ARHGAP21, Q5T5U3; “below the threshold” in the experiment with DLG1_2, Q12959; 3.8 in the experiment with DLG2_3, Q15700.
